“And” between values parts separate entries of the source, which are not always exact repeats. Identical values can stand only once.
Key:
[1] = target: pyruvate kinase (PK) M2 (PKM2) (mouse) (mouse (endogenous in isolated glomeruli)) (UniProt P52480); test: cross-linking; lysates of mouse glomeruli or HRMCs (sodium phosphate buffer pH 7.3, 0.5% Triton X-100), 0.01% glutaraldehyde 5 min 37°C, stopped with 50 mM Tris-Cl pH 8.0; 10% SDS-PAGE, blot with anti-PKM2; samples from db/m, db/db, AAV-shARAP1 mice; NG/HG, ARAP1 shRNA, ARAP1 overexpression, AG1478 in cells
[2] = target: pyruvate kinase (PK) M2 (PKM2) (human (endogenous in HRMCs)) (UniProt P14618); test: as above

Sequence of pyruvate kinase (PK) M2 (PKM2) (mouse), P52480 1-531 (enzyme; other documents disagree on this pair) (P52480 whole entry): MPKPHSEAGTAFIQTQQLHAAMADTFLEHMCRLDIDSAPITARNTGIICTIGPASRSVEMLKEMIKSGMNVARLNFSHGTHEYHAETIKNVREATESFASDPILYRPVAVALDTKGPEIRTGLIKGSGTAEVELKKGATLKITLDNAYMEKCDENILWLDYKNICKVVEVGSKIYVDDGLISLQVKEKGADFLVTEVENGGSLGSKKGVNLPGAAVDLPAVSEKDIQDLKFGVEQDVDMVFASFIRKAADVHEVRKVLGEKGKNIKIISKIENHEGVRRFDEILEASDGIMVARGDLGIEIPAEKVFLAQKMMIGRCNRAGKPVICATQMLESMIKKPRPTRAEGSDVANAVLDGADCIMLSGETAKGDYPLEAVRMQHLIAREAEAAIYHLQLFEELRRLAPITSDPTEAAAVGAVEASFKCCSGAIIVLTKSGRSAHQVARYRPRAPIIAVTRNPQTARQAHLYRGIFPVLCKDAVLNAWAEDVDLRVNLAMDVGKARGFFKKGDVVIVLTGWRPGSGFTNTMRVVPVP
Sequence of pyruvate kinase (PK) M2 (PKM2), P14618 1-531 (enzyme; other documents disagree on this pair) (P14618 whole entry): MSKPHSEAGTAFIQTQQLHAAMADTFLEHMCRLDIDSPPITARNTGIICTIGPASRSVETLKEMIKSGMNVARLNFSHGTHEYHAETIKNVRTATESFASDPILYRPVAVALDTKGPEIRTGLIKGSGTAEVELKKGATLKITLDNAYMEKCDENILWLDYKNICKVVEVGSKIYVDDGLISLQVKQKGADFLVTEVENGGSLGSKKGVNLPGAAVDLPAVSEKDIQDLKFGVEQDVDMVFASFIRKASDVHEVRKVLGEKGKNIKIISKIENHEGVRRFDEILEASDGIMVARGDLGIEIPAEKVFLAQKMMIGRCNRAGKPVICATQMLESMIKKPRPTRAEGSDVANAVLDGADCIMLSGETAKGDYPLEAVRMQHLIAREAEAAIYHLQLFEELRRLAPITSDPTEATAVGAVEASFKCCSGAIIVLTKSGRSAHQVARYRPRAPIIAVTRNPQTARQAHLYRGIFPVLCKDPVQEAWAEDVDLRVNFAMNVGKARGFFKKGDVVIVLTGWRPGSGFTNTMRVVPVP

Substance | stoichiometry N [1] | stoichiometry N [2]
pyruvate kinase (PK) M2 (PKM2) (mouse), P52480 1-531 (enzyme; other documents disagree on this pair) | 2 and 4 | –
pyruvate kinase (PK) M2 (PKM2), P14618 1-531 (enzyme; other documents disagree on this pair) | – | 2

— publication PMC9974832
